Consider 3 molecules from paper PMC6521355, “Enzymatic Conversion of RBCs by α-N-Acetylgalactosaminidase from Spirosoma linguale” (Enzyme Research, 2019).

The target of series [1] is Spirosoma linguale α-N-acetylgalactosaminidase (Spirosoma linguale). Briefly: SEC; analytical gel filtration of the tag-free purified enzyme, Zorbax GF-250 column, 30°C, TBS (50 mM Tris 150 mM NaCl) pH 7.4, 1.0 mL/min; mass from Ve/Vo against five protein standards.
In series [2] the target is T1, S. linguale α-NAGA (SlNAGA) (Spirosoma linguale, UniProt D2QUW2).
T1 construct: gene Slin_6637; E. coli BL21(DE3); monomer 48215 Da calculated, 96 kDa dimer; primers encode N-term MPSLYTTAQ and C-term PIFGLTDVY
T1 sequence (D2QUW2 1-435): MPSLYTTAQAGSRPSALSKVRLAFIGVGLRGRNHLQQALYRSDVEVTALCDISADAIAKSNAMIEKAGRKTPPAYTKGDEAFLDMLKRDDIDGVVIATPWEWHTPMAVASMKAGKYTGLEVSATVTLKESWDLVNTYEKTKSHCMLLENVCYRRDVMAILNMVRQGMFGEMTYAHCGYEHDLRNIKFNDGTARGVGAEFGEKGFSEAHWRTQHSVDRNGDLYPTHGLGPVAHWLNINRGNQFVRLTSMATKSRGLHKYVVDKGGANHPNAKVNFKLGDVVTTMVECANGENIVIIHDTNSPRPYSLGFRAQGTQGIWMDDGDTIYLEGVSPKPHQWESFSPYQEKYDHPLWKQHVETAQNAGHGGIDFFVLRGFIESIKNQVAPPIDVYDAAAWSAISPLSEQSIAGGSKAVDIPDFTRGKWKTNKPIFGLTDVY
Briefly: Product inhibition of 4-nitrophenyl substrate hydrolysis, absorbance at […] nm, competitive model fit. Type of series: biochemical. The settings on record: 20 mM sodium phosphate pH 7.0, ~22 °C.

Substrate in the series “purified protein”: CC(=O)N[C@H]1[C@@H](Oc2ccc([N+](=O)[O-])cc2)O[C@H](CO)[C@H](O)[C@@H]1O
Briefly: purified protein. Format: biochemical, Spirosoma linguale. Particulars: 20 mM sodium phosphate pH 7.4, 25 °C.

“Spirosoma linguale α-N-acetylgalactosaminidase (enzyme)” registered a stoichiometry N in series [1] of 2.
`CC(=O)N[C@H]1C(O)O[C@H](CO)[C@H](O)[C@@H]1O` (some centres unmarked) [N-acetylgalactosamine]: in series [2], the affinity corresponds to a Ki of 180 ± 24 µM.

B1: S. linguale α-NAGA (SlNAGA) (Spirosoma linguale DSM 74) (protein)
chain: MPSLYTTAQAGSRPSALSKVRLAFIGVGLRGRNHLQQALYRSDVEVTALCDISADAIAKSNAMIEKAGRKTPPAYTKGDEAFLDMLKRDDIDGVVIATPWEWHTPMAVASMKAGKYTGLEVSATVTLKESWDLVNTYEKTKSHCMLLENVCYRRDVMAILNMVRQGMFGEMTYAHCGYEHDLRNIKFNDGTARGVGAEFGEKGFSEAHWRTQHSVDRNGDLYPTHGLGPVAHWLNINRGNQFVRLTSMATKSRGLHKYVVDKGGANHPNAKVNFKLGDVVTTMVECANGENIVIIHDTNSPRPYSLGFRAQGTQGIWMDDGDTIYLEGVSPKPHQWESFSPYQEKYDHPLWKQHVETAQNAGHGGIDFFVLRGFIESIKNQVAPPIDVYDAAAWSAISPLSEQSIAGGSKAVDIPDFTRGKWKTNKPIFGLTDVY
notes: E. coli BL21(DE3); monomer 48215 Da calculated, 96 kDa dimer; primers encode N-term MPSLYTTAQ and C-term PIFGLTDVY
Take B1: in the series “purified protein”, the Km was determined as 1070 ± 70 µM, the kcat was 173 s⁻¹ and the kcat/Km was 163000 M⁻¹ s⁻¹.

In general, stoichiometry N refers to a count of units in the complex or per binding partner. By Ki is commonly meant the equilibrium dissociation constant of an inhibitor or competing ligand from its target. Lower therefore signals tighter binding. A word on the Km: it is the concentration of substrate that gives half-maximal velocity. Broadly, the kcat is the maximal rate divided by the concentration of active sites. The term kcat/Km denotes the second-order rate constant that governs catalysis at low substrate concentration.
